Source: article PMC11272584 (Nature Metabolism, 2024)
Changes are numbered by the printed parent chain.

How the values were obtained:
GIPR A185V (human) = target: T1, GIPR A185V (human) (UniProt P48546)
T1 sequence: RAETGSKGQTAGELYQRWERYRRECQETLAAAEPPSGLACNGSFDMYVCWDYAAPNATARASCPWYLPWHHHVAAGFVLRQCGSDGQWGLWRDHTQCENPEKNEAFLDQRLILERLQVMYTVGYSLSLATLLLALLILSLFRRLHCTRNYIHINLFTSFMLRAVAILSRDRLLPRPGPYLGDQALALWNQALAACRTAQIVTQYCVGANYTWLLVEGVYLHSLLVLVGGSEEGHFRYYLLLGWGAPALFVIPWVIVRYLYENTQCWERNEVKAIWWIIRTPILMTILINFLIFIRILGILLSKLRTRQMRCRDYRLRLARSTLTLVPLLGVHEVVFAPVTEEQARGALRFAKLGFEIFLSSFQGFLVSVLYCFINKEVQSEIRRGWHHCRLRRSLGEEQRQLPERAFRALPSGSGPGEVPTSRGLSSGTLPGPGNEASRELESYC

GIPR T116R (human) = target: T2, GIPR T116R (human) (UniProt P48546)
T2 sequence: T1 sequence with T95R, V164A

- β-arrestin 2 recruitment (BRET) on stimulation with GIP(1-42): logEC50 (Arrestin) (log M (inferred)) (GIPR A185V (human)): -8.96
- β-arrestin 2 recruitment (BRET) on stimulation with GIP(1-42): logEC50 (Arrestin) (log M (inferred)) (GIPR T116R (human)): -8.71
Substance: β-arrestin 2 (Rluc8-Arrestin-3-Sp1) (from UniProt P32121 1-409) (natural protein)
